Test results from patent publication US20220031857A1 (OSSIANIX, published 2022).
“And” between values parts separate entries of the source, which are not always exact repeats. Equal values may be shown once.

T1: recombinant mouse TfR2 (mouse, UniProt Q9JKX3 103-798, limits assumed)
T1 construct: Negative control protein
T1 sequence (looked up): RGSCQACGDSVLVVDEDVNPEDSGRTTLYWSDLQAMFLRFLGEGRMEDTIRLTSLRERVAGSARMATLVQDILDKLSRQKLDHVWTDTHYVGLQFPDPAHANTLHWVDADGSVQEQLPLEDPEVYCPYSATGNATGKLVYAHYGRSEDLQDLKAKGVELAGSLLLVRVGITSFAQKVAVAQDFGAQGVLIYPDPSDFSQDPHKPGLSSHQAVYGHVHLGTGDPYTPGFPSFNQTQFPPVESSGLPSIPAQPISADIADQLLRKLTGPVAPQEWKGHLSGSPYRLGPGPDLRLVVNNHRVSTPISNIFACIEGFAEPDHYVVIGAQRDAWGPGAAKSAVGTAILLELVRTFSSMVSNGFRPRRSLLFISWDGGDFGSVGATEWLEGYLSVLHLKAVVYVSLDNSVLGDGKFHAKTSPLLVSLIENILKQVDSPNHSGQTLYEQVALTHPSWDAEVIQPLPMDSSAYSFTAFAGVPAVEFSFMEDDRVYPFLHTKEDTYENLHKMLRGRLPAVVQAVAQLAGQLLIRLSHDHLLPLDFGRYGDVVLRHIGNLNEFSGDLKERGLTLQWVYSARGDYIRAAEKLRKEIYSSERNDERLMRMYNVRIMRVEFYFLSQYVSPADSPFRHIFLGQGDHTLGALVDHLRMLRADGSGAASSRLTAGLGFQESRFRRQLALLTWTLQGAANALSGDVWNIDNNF

B1: Clone 12 VNAR-Fc fusion protein (Fc fusion)
chain: ARVDQTPQTITKETGESLTINCVLRDSICALSSTHWYRKKSGSTNEESISKGGRYVETVNSGSKSFSLRINDLTVEDSGTYRCKVVRSGVGPCWADVYGGGTAVTVNA
notes: Bivalent VNAR-Fc; not shown: glycine/serine linker (GxSx)n extending the hinge; human IgG1 Fc (hinge, CH2, CH3) of pFUSE-hIgG1e3-Fc2; G236 also deleted
B2: Clone 16 VNAR-Fc fusion protein (Fc fusion)
chain: ARVDQTPQTITKETGESLTINCVLRDSNCALPSTYWYRKKSGSTNEESISKGGRYVETVNSGSKSFSLRINDLTVKDSGTYRCKVDLPRYLCFSQYGRWYDVYGDGTAVTVNA
notes: as for B1
B3: Clone 10 VNAR-Fc fusion protein (Fc fusion)
chain: ARVDQTPQTITKETGESLTINCVLRDSNCALSSTYWYRKKSGSTNEENISKGGRYVETVNSGSKSFSLRINDLTVEDSGTYRCNVVQYPSYNNYFWCDVYGDGTAVTVNA
notes: Bivalent VNAR-Fc; also called clone 10-Fc; Clone 10-hFc; not shown: glycine/serine linker (GxSx)n extending the hinge; human IgG1 Fc (hinge, CH2, CH3) of pFUSE-hIgG1e3-Fc2; G236 also deleted
B4: Clone 1 VNAR-Fc fusion protein (Fc fusion)
chain: ARVDQTPQTITKETGESLTINCVLRDNNCALSTTYWYRKKSGSTNEENISKGGRYVETVNSGSKSFSLKINDLTVEDSGTYRCNVRDVQACGNDWVWLDVYGGGTVVTVNA
notes: Bivalent VNAR-Fc; also called clone 1-Fc; not shown: glycine/serine linker (GxSx)n extending the hinge; human IgG1 Fc (hinge, CH2, CH3) of pFUSE-hIgG1e3-Fc2; G236 also deleted
B5: Clone 39 VNAR-Fc fusion protein (Fc fusion)
chain: ARVDQTPQTITKETGESLTINCVLRDSNCALSSTLWYRTKSGSRNEESISKGGRYVETVNSGSKSFSLKINDLTVEDSGTYRCNVQGMVYDGSSFWWCDVYGDSTAVTVNA
notes: as for B1
B6: Clone 7 VNAR-Fc fusion protein (Fc fusion)
chain: ARVDQTPQTITKETGESLTINCVLRDSNCELSSTYWYRKKSGSTNEARISKGGRYVETVNSGSKSFSLKINDLTVEDSGTYRCNVLTTDSYDLGDVYGDGTVVTVNA
notes: as for B1
B7: Clone 2 VNAR-Fc fusion protein (Fc fusion)
chain: ARVDQTPQTITKETGESLTINCVLRDNNCALSTTYWYRKKSGSTNEENISKGGRYVETVNSGSKSFSLKINDLTVEDSGTYRCNVFGVDNGWWCDVYGGGTVVTVNA
notes: as for B1
B8: IDUA-clone 10-hFc (Fc fusion)
chain (part 1 of 2): B3 chain
chain (part 2 of 2): APHLVHVDAARALWPLRRFWRSTGFCPPLPHSQADQYVLSWDQQLNLAYVGAVPHRGIKQVRTHWLLELVTTRGSTGRGLSYNFTHLDGYLDLLRENQLLPGFELMGSASGHFTDFEDKQQVFEWKDLVSSLARRYIGRYGLAHVSKWNFETWNEPDHHDFDNVSMTMQGFLNYYDACSEGLRAASPALRLGGPGDSFHTPPRSPLSWGLLRHCHDGTNFFTGEAGVRLDYISLHRKGARSSISILEQEKVVAQQIRQLFPKFADTPIYNDEADPLVGWSLPQPWRADVTYAAMVVKVIAQHQNLLLANTTSAFPYALLSNDNAFLSYHPHPFAQRTLTARFQVNNTRPPHVQLLRKPVLTAMGLLALLDEEQLWAEVSQAGTVLDSNHTVGVLASAHRPQGPADAWRAAVLIYASDDTRAHPNRSVAVTLRLRGVPPGPGLVYVTRYLDNGLCSPDGEWRRLGRPVFPTAEQFRRMRAAEDPVAAAPRPLPAGGRLTLRPALRLPSLLLVHVCARPEKPPGQVTRLRALPLTQGQLVLVWSDEHVGSKCLWTYEIQFSQDGKAYTPVSRKPSTFNLFVFSPDTGAVSGSYRVRALDYWARPGPFSDPVPYLEVPVPRGPPSPGNP
notes: Order of the parts follows the text's 'VNAR-Fc-IDUA'; Made in CHO cells; also called clone 10 VNAR-Fc-IDUA fusion protein; not shown: human Fc fragment (hFc)
B9: IDUA-clone 1-hFc (Fc fusion)
chain (part 1 of 2): B4 chain
chain (part 2 of 2): B8 chain (part 2 of 2)
notes: Order of the parts follows the text's 'VNAR-Fc-IDUA'; Made in CHO cells; also called clone 1 VNAR-Fc-IDUA fusion protein; not shown: human Fc fragment (hFc)

Target: T2, recombinant human TfR1 (transferrin receptor 1) (human, UniProt P02786 89-760)
T2 construct: Bought recombinant His-tagged protein; also called hTfR1
Assay: ELISA, plate coated with 1 µg/ml recombinant human TfR1, purified VNAR-Fc titrated, 4-parameter fit
Description: (§1) It was previously reported that affinity might play a crucial role in TfR1 mediated brain penetration. […] Affinity estimation and unspecific binding was initially assessed using ELISA for human and mouse TfR1.
(§2) The next day the plates were blocked with […] with 0.1% Tween20 (PBST) for 1 hour at room temperature. Transfected cells were spun down at 2000 rpm for 10 minutes and the collected supernatant was mixed with milk in PBST to a final 2.5% concentration and incubated for 30 minutes. 100 μl of blocked supernatant was transferred into coated plates and incubated for 1 hour. […] The plates were washed and developed with TMB detection solution before stopping the reaction with 1% HCl. Absorbance was measured at 450 nm. A VNAR-Fc at know concentration was used for standard curve to calculate VNAR-Fc expression level.

T2 sequence (P02786 89-760 limits assumed): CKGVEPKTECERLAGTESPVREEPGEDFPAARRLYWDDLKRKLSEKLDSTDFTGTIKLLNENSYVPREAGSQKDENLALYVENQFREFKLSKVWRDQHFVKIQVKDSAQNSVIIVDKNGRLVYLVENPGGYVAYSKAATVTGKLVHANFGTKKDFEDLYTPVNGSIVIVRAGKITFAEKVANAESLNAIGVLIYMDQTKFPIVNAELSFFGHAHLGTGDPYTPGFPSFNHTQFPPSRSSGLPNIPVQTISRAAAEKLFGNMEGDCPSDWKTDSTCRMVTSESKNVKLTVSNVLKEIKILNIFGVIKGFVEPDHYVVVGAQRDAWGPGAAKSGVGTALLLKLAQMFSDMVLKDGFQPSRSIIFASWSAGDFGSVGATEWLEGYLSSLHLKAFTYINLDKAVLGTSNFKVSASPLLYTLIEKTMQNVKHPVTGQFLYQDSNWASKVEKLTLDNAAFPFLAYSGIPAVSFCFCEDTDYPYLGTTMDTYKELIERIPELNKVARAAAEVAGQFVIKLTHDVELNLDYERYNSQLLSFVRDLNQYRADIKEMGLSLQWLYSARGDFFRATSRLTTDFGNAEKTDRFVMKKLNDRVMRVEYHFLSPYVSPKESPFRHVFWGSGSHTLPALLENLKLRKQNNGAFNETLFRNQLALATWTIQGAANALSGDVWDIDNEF

| Binder | EC50 [nM] |
| --- | --- |
| B1 | 151 |
| B2 | 3110 |
| B3 | 2.45 |
| B4 | 4.67 |
| B5 | 257 |
| B6 | 463 |

Target: T3, recombinant mouse TfR1 (transferrin receptor 1) (mouse, UniProt Q62351 89-763)
T3 construct: Bought recombinant His-tagged protein; also called mTfR1
Assay: Octet, mouse TfR1 on anti-His biosensors, analyte 10 nM, PBS pH 6.0
Description: (§3) Binding kinetics of selected VNAR-Fcs to mouse TfR1 at pH 7.2 and pH 6.0 was measured by […] (Octet). Mouse TfR1 (10 μg/ml) was immobilised on anti-His biosensors and the binding kinetics of VNAR-Fcs and 8D3 antibody (10 nM) was measured at pH 7.2 and pH 6.0 in phosphate buffered saline (PBS) (Table 8).

T3 sequence (Q62351 89-763 limits assumed): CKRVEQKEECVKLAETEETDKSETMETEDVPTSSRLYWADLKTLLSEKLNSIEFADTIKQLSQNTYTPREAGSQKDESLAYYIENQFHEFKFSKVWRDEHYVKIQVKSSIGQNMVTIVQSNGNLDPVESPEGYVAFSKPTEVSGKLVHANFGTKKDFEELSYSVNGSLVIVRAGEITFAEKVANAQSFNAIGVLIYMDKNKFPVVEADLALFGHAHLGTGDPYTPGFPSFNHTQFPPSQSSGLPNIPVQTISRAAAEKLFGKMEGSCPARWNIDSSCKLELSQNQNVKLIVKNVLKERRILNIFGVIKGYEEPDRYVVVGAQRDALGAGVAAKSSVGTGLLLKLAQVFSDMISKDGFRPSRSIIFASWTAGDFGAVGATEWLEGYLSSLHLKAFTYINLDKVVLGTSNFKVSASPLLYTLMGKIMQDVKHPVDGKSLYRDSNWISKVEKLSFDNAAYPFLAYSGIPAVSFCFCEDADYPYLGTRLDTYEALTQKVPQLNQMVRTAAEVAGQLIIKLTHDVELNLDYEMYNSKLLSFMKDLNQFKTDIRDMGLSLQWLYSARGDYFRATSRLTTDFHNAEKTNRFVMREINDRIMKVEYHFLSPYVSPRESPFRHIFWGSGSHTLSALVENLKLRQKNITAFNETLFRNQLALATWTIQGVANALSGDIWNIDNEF

| Binder | Kd [nM] | koff [s⁻¹] | kon [M⁻¹ s⁻¹] |
| --- | --- | --- | --- |
| B3 | 0.419 | 0.0003 | 715000 |
| B4 | 0.541 | 0.00036 | 666000 |

Target: T1, recombinant mouse TfR2
Assay: ELISA with Expi293 culture medium used directly, coated mouse TfR2, anti-Fc detection
Description: (§4) FIG. 6. […] The VNAR-Fc fusion proteins were transiently expressed using Expi293 expression system. VNAR-Fc constructs contained signal peptide sequence in order to be secreted. Cell growth media was used directly in ELISA. HSA and mouse TfR2 were used as negative controls for unspecific binding. A clone in position 52 represents untransfected cells. Total Fc concentration was measured with capture and detection anti-Fc antibody pair using irrelevant VNAR-Fc at known concentration for standard curve.
as §2

| Binder | binding result |
| --- | --- |
| B1 | no binding |
| B7 | no binding |
| B3 | no binding |
| B4 | no binding |
| B5 | no binding |
| B6 | no binding |

Target: T3, recombinant mouse TfR1 (transferrin …)
Assay: ELISA, plate coated with 1 µg/ml recombinant mouse TfR1, purified VNAR-Fc titrated, 4-parameter fit
Description: as §1, §2

| Binder | EC50 [nM] |
| --- | --- |
| B1 | 1560 |
| B2 | 7180 |
| B3 | 11.9 |
| B4 | 15.9 |
| B5 | 1530 |
| B6 | 5370 |

Target: T4, human serum albumin (human, UniProt P02768 25-609)
T4 construct: Negative control protein; also called HSA
Assay: ELISA with Expi293 culture medium used directly, coated HSA, anti-Fc detection
Description: as §4, §2

T4 sequence (P02768 25-609 limits assumed): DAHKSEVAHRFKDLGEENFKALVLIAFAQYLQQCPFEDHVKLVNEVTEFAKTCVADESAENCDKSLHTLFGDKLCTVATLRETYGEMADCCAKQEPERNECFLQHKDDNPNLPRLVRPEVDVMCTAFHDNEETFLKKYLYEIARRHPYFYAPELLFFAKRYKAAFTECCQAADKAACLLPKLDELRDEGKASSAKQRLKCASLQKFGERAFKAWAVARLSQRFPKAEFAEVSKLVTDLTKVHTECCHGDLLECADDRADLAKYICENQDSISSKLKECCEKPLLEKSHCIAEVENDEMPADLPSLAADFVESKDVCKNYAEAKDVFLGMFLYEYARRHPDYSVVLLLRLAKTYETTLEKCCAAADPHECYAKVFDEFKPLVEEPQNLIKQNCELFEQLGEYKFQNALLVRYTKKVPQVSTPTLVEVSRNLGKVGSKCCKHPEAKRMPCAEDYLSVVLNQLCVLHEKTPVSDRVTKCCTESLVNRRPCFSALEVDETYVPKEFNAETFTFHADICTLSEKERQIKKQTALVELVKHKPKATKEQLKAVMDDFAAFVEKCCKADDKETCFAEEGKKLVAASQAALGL

| Binder | binding result |
| --- | --- |
| B1 | no binding |
| B7 | no binding |
| B3 | no binding |
| B4 | no binding |
| B5 | no binding |
| B6 | no binding |

Target: T2, recombinant human TfR1 (transferrin …)
Assay: Octet, human TfR1 immobilised; 8D3 as first antibody, which does not bind human TfR1 (grey column); white cell
Description: FIGS. 15A and 15B. Epitope binning by cross-competition binding to mouse and human TfR1. VNAR-Fc fusion proteins were tested for cross-blocking in a pairwise manner against mouse (A) and human TfR1 (B) immobilised on biosensors using the Octet platform.
A series of biochemical parameters was examined to further characterize the panel VNAR to TfR1 obtained from in vivo phage display selections. Epitope binning experiments were performed to assess whether the VNARs could compete against each other for binding to either the mouse or human TfR1. […] Because each VNAR binds via a unique CDR3 region with a different structural topography, steric interactions could be important efficient transcytosis.

| Binder | Octet signal as second antibody after 8D3 |
| --- | --- |
| B1 | 0.403 |
| B7 | 0.454 |
| B3 | 0.546 |
| B4 | 0.329 |
| B5 | 0.609 |

Target: T3, recombinant mouse TfR1 (transferrin …)
Assay: ELISA on mouse TfR1

| Binder | EC50 [nM] |
| --- | --- |
| B3 | 2.96 |
| B8 | 8.33 |
| B4 | 4.83 |
| B9 | 7.24 |

Target: T2, recombinant human TfR1 (transferrin …)
Assay: SPR (Biacore), single-cycle kinetics, His-tagged TfR1 captured, VNAR-Fc injected
Description: (§5) Binding kinetics of VNAR-Fcs was determined by surface plasmon resonance (Biacore T200, GE Healthcare). CM5 chips were coated with anti-His antibodies (His Capture Kit, GE Healthcare) as recommended by the manufacturer and human or mouse his-tagged TfR1 (SinoBiological) at 10 ug/mL in HBS-EP+ (GE Healthcare) was captured at flow rate 10 ul/min (contact time 120 s). […] A flow cell without TfR1 captured served as a reference. Sensorgrams were fitted and kinetic constants were determined using Biacore T200 Evaluation software. Chips were regenerated in 10 mM Glycine-HCl, pH 1.5 (contact time: 120 s at flow rate 30 ul/min).

| Binder | Kd [nM] | koff [s⁻¹] | kon [M⁻¹ s⁻¹] |
| --- | --- | --- | --- |
| B7 | 2.34 | 0.000445 | 190000 |
| B3 | 0.523 | 0.00016 | 306000 |
| B4 | 1.87 | 0.000123 | 66000 |
| B5 | 7.22 | 0.000684 | 94700 |

Target: T3, recombinant mouse TfR1 (transferrin …)
Assay: as above
Description: as §5

| Binder | Kd [nM] | koff [s⁻¹] | kon [M⁻¹ s⁻¹] |
| --- | --- | --- | --- |
| B7 | 2.56 | 0.000501 | 195000 |
| B3 | 0.408 | 0.000116 | 285000 |
| B4 | 3.34 | 0.00025 | 74700 |

Target: T3, recombinant mouse TfR1 (transferrin …)
Assay: Octet, mouse TfR1 on anti-His biosensors, analyte 10 nM, PBS pH 7.2
Description: as §3

| Binder | Kd [nM] | koff [s⁻¹] | kon [M⁻¹ s⁻¹] |
| --- | --- | --- | --- |
| B3 | 0.0703 | 4.43e-05 | 630000 |
| B4 | 0.363 | 0.000292 | 804000 |

Target: T3, recombinant mouse TfR1 (transferrin …)
Assay: SPR (Biacore), single-cycle kinetics, His-tagged TfR1 captured, VNAR-Fc injected; SPR single cycle kinetics, immobilised mouse TfR1, VNAR-Fc up to 250 nM
Description: as §5

| Binder | Kd [nM] | koff [s⁻¹] | kon [M⁻¹ s⁻¹] |
| --- | --- | --- | --- |
| B5 | 18.3 | 0.00294 | 161000 |

Target: T3, recombinant mouse TfR1 (transferrin …)
Assay: ELISA, plate coated with 1 µg/ml recombinant mouse TfR1, purified VNAR-Fc titrated, 4-parameter fit; Clone 2 stands twice in the legend

| Binder | EC50 |
| --- | --- |
| B7 | 433 nM and 761 nM |
